Measurements as given in the supplement of paper PMC11246515.
± gives the standard deviation of the averaged measurements.

Test: total protein half-life in vivo (active degradation + dilution); higher = more stable protein
[1] = E. coli NCM3722 delta-clpP delta-lon delta-hslV, growth: N-lim chemostat, doubling time 6 h
[2] = E. coli NCM3722 delta-hslV, growth: N-lim chemostat, doubling time 6 h
[3] = E. coli NCM3722 delta-smpB, growth: N-lim chemostat, doubling time 6 h
[4] = wild type E. coli NCM3722, growth: C-lim chemostat, doubling time 3 h
[5] = wild type E. coli NCM3722, growth: C-lim chemostat, doubling time 6 h
[6] = wild type E. coli NCM3722, growth: C-lim chemostat, doubling time 12 h
[7] = wild type E. coli NCM3722, growth: N-lim chemostat, doubling time 6 h
[8] = wild type E. coli NCM3722, growth: P-lim chemostat, doubling time 6 h
[9] = wild type E. coli NCM3722, growth: P-lim chemostat, doubling time 12 h
[10] = E. coli NCM3722 delta-lon, growth: N-lim chemostat, doubling time 6 h
[11] = wild type E. coli NCM3722, growth: N-lim chemostat, doubling time 12 h

Sequence | total protein half-life in vivo [1] [h] | total protein half-life in vivo [2] [h] | total protein half-life in vivo [3] [h] | total protein half-life in vivo [4] [h] | total protein half-life in vivo [5] [h] | total protein half-life in vivo [6] [h] | total protein half-life in vivo [7] [h] | total protein half-life in vivo [8] [h] | total protein half-life in vivo [9] [h] | total protein half-life in vivo (E. coli NCM3722 delta-clpP, growth: N-lim chemostat, doubling time 6 h) [h] | total protein half-life in vivo [10] [h] | total protein half-life in vivo [11] [h]
MSKKIVLALGGNALGDDLAGQMKAVKITSQAIVDLIAQGHEVIVTHGNGPQVGMINQAFEAAAKTEAHSPMLPMSVCVALSQGYIGYDLQNALREELLSRGINKPVATLVTQVEVDANDPAFLNPTKPIGSFFTEQEAEQLTKQGYTLKEDAGRGYRRVVASPKPVDIIEKETVKALVDAGQVVITVGGGGIPVIREGNHLRGASAVIDKDWASARLAEMIDADMLIILTAVEKVAINFGKENEQWLDRLSLSDAERFIEEGHFAKGSMLPKVEAAASFARSRAGREALITVLSKAKEGIEGKTGTVICQ | 3.53 | > 8 | 2.48 | 2.84 ± 0.39 | 3.92 | 6.22 ± 1.5 | 2.66 | 3.03 | 5.27 ± 1.5 |  |  | 
MSKKLIALCACPMGLAHTFMAAQALEEAAVEAGYEVKIETQGADGIQNRLTAQDIAEATIIIHSVAVTPEDNERFESRDVYEITLQDAIKNAAGIIKEIEEMIASEQQ | 4.54 ± 0.89 |  |  | 2.27 ± 0.1 | 4.02 ± 0.38 | 5.83 ± 0.31 |  |  |  |  |  | 
MSKLDLNALNELPKVDRILALAETNAELEKLDAEGRVAWALDNLPGEYVLSSSFGIQAAVSLHLVNQIRPDIPVILTDTGYLFPETYRFIDELTDKLKLNLKVYRATESAAWQEARYGKLWEQGVEGIEKYNDINKVEPMNRALKELNAQTWFAGLRREQSGSRANLPVLAIQRGVFKVLPIIDWDNRTIYQYLQKHGLKYHPLWDEGYLSVGDTHTTRKWEPGMAEEETRFFGLKRECGLHEG | 4.38 ± 0.8 | 1.29 ± 0.27 | 1.37 ± 0.087 | 2.11 ± 0.095 | 2.91 ± 0.58 | 4.05 ± 0.29 | 1.47 ± 0.077 | 3.28 ± 0.37 | 6.15 ± 0.27 | 4.21 ± 0.56 | 1.64 ± 0.023 | 1.721 ± 0.012
MSKLDTFIQHAVNAVPVSGTSLISSLYGDSLSHRGGEIWLGSLAALLEGLGFGERFVRTALFRLNKEGWLDVSRIGRRSFYSLSDKGLRLTRRAESKIYRAEQPAWDGKWLLLLSEGLDKSTLADVKKQLIWQGFGALAPSLMASPSQKLADVQTLLHEAGVADNVICFEAQIPLALSRAALRARVEECWHLTEQNAMYETFIQSFRPLVPLLKEAADELTPERAFHIQLLLIHFYRRVVLKDPLLPEELLPAHWAGHTARQLCINIYQRVAPAALAFVSEKGETSVGELPAPGSLYFQRFGGLNIEQEALCQFIR |  | 4.03 ± 0.075 | 4.07 ± 0.076 | 2.77 ± 0.17 | 5.07 ± 0.31 | 8.39 ± 0.13 | 4.07 ± 0.22 | 4.82 ± 0.088 | 8.96 ± 0.47 |  | 4.2 ± 0.044 | 6.84 ± 0.13
